Here are results for 3 molecules from article PMC5503505 (Nature structural & molecular biology, 2017).

B3: Orc2 (natural protein)
chain: MLNGEDFVEHNDILSSPAKSRNVTPKRVDPHGERQLRRIHSSKKNLLERISLVGNERKNTSPDPALKPKTPSKAPRKRGRPRKIQEELTDRIKKDEKDTISSKKKRKLDKDTSGNVNEESKTSNNKQVMEKTGIKEKREREKIQVATTTYEDNVTPQTDDNFVSNSPEPPEPATPSKKSLTTNHDFTSPLKQIIMNNLKEYKDSTSPGKLTLSRNFTPTPVPKNKKLYQTSETKSASSFLDTFEGYFDQRKIVRTNAKSRHTMSMAPDVTREEFSLVSNFFNENFQKRPRQKLFEIQKKMFPQYWFELTQGFSLLFYGVGSKRNFLEEFAIDYLSPKIAYSQLAYENELQQNKPVNSIPCLILNGYNPSCNYRDVFKEITDLLVPAELTRSETKYWGNHVILQIQKMIDFYKNQPLDIKLILVVHNLDGPSIRKNTFQTMLSFLSVIRQIAIVASTDHIYAPLLWDNMKAQNYNFVFHDISNFEPSTVESTFQDVMKMGKSDTSSGAEGAKYVLQSLTVNSKKMYKLLIETQMQNMGNLSANTGPKRGTQRTGVELKLFNHLCAADFIASNEIALRSMLREFIEHKMANITKNNSGMEIIWVPYTYAELEKLLKTVLNTL

The target of test [1] is T1, Cdt1 (S. cerevisiae, UniProt P47112 1-604).
T1 sequence: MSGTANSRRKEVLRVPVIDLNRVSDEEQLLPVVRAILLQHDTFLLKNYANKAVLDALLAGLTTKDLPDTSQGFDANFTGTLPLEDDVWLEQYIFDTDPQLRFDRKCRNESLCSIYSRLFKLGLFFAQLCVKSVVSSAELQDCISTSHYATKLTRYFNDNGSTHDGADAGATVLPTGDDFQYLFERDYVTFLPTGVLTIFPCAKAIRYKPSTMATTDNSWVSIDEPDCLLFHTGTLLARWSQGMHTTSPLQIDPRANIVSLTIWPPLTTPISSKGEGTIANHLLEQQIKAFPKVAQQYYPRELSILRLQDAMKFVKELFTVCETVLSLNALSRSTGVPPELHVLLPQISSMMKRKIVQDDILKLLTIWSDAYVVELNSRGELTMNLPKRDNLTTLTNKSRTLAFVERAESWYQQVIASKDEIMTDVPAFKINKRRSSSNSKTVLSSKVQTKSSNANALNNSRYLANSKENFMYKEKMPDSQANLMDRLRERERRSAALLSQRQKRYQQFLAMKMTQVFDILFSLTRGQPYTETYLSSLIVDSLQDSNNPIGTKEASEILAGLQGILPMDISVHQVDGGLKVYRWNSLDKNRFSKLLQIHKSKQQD
In words: cross-linking.

In test [2] the target is B3. In words: cross-linking.
Test [3] addresses T2, Mcm7 (S. cerevisiae, UniProt P38132 1-845).
T2 sequence: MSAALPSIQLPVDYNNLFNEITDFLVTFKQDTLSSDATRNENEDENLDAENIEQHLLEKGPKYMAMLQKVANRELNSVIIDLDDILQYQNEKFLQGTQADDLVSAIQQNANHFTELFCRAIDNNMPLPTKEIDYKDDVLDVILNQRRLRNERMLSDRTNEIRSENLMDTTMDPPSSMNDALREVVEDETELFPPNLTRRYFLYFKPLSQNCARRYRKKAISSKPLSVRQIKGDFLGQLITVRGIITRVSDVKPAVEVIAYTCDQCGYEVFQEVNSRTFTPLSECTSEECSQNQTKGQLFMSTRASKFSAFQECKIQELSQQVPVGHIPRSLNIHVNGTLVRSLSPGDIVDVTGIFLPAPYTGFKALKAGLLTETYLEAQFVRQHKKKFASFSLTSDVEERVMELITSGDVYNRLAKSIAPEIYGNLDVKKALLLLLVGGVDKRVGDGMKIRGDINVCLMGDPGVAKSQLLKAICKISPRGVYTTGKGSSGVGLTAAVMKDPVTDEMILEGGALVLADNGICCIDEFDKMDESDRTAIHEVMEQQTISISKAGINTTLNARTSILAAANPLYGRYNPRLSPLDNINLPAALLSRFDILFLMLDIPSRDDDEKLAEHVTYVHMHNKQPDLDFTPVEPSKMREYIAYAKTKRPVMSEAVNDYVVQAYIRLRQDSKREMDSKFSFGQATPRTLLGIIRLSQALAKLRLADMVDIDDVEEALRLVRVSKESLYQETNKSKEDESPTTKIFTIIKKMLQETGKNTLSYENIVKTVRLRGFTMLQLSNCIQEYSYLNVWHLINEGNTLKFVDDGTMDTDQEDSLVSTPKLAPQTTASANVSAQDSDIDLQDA
The test can be described thus: cryo-EM structure.

For test [4], the target named is T3, Orc1 (S. cerevisiae, UniProt P54784 1-914).
T3 sequence: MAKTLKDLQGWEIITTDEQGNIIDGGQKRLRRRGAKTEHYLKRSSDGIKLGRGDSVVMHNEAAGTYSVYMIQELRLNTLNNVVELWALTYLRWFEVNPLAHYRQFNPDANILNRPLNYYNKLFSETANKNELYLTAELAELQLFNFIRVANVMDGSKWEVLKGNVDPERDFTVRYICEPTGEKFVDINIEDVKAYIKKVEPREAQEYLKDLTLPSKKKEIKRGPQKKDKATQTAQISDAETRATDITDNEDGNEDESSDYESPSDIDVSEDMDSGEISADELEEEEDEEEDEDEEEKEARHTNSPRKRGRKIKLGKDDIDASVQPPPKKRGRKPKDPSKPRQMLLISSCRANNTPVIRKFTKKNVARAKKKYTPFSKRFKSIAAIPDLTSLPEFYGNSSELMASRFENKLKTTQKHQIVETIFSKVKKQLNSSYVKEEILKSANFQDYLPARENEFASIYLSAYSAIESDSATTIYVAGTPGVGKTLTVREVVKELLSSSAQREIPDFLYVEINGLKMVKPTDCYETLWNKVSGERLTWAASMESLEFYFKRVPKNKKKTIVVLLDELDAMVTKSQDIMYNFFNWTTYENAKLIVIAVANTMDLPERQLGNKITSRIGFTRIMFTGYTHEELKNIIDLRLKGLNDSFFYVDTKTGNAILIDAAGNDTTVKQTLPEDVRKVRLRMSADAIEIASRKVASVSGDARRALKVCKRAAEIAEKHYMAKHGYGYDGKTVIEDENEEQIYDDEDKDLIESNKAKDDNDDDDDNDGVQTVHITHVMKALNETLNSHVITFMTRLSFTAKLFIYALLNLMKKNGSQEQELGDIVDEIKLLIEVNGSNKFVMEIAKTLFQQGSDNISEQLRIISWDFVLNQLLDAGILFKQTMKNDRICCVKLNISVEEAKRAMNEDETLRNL
The test can be described thus: cryo-EM structure.

Test [5] has as its target T4, Mcm5 (S. cerevisiae, UniProt P29496 1-775).
T4 sequence: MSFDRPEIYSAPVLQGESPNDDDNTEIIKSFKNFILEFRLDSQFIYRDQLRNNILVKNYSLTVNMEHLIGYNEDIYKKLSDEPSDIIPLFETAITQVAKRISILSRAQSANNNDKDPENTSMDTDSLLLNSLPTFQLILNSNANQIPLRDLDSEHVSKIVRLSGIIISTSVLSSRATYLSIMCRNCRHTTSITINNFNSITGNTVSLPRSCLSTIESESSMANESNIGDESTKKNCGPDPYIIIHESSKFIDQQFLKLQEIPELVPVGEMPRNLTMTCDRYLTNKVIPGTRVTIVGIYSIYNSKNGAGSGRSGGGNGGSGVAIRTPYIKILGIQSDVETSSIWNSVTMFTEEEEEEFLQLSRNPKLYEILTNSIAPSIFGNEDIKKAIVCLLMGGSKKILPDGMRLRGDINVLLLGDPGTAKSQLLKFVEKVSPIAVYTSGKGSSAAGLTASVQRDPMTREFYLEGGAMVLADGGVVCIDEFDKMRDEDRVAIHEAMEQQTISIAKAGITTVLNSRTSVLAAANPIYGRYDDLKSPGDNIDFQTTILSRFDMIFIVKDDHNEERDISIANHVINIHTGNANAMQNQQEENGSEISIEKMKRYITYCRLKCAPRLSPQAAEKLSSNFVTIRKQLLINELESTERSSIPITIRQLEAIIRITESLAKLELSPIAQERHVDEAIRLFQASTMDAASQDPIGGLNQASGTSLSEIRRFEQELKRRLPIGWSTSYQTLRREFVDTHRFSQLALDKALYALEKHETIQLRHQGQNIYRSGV
The test can be described thus: cross-linking.

Test [6] deals with Mcm3 (S. cerevisiae, UniProt P24279 1-971). The test can be described thus: cryo-EM structure.
Sequence of Mcm3 (P24279 whole entry): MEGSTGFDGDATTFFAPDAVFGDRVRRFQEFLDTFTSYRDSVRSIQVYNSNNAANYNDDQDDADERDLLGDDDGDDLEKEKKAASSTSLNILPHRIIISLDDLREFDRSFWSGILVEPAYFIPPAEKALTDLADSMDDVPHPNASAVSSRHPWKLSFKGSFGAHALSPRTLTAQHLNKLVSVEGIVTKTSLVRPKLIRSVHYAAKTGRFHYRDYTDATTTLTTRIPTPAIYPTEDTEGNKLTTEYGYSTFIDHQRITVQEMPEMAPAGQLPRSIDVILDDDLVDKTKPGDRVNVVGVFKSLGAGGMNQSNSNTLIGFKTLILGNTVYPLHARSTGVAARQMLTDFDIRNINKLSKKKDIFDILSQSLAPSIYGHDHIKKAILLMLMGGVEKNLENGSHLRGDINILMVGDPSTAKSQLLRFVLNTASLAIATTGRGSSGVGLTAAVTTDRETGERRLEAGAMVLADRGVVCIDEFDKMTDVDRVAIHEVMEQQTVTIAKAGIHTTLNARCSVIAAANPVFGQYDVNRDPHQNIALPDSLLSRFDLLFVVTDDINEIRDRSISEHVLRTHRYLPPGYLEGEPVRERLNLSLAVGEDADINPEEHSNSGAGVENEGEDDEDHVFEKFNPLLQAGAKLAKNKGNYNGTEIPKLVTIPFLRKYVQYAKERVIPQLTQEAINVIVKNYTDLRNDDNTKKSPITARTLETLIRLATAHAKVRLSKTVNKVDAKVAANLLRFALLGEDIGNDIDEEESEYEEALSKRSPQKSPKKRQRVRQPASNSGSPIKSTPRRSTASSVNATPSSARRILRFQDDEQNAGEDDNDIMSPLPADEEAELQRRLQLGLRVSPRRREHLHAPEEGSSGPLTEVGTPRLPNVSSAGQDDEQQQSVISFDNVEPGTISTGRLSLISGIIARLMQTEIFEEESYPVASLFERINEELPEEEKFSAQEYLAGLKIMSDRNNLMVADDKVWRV

B1: Orc6 (natural protein)
chain: MSMQQVQHCVAEVLRLDPQEKPDWSSGYLKKLTNATSILYNTSLNKVMLKQDEEVARCHICAYIASQKMNEKHMPDLCYYIDSIPLEPKKAKHLMNLFRQSLSNSSPMKQFAWTPSPKKNKRSPVKNGGRFTSSDPKELRNQLFGTPTKVRKSQNNDSFVIPELPPMQTNESPSITRRKLAFEEDEDEDEEEPGNDGLSLKSHSNKSITGTRNVDSDEYENHESDPTSEEEPLGVQESRSGRTKQNKAVGKPQSELKTAKALRKRGRIPNSLLVKKYCKMTTEEIIRLCNDFELPREVAYKIVDEYNINASRLVCPWQLVCGLVLNCTFIVFNERRRKDPRIDHFIVSKMCSLMLTSKVDDVIECVKLVKELIIGEKWFRDLQIRYDDFDGIRYDEIIFRKLGSMLQTTNILVTDDQYNIWKKRIEMDLALTEPL
With B1, the binding result in test [1] and in test [2] was “binds” each time.

B2: Cdc6 (natural protein)
chain: MSAIPITPTKRIRRNLFDDAPATPPRPLKRKKLQFTDVTPESSPEKLQFGSQSIFLRTKALLQKSSELVNLNSSDGALPARTAEYEQVMNFLAKAISEHRSDSLYITGPPGTGKTAQLDMIIRQKFQSLPLSLSTPRSKDVLRHTNPNLQNLSWFELPDGRLESVAVTSINCISLGEPSSIFQKIFDSFQDLNGPTLQIKNMQHLQKFLEPYHKKTTFVVVLDEMDRLLHANTSETQSVRTILELFLLAKLPTVSFVLIGMANSLDMKDRFLSRLNLDRGLLPQTIVFQPYTAEQMYEIVIQKMSSLPTIIFQPMAIKFAAKKCAGNTGDLRKLFDVLRGSIEIYELEKRFLLSPTRGSLNSAQVPLTPTTSPVKKSYPEPQGKIGLNYIAKVFSKFVNNNSTRTRIAKLNIQQKLILCTIIQSLKLNSDATIDESFDHYIKAITKTDTLAPLQRNEFLEICTILETCGLVSIKKTKCKGKTKRFVDKIDVDLDMREFYDEMTKISILKPFLH
On to B2, for which the binding result in test [3] and in test [4] was “binds” in each case.
Regarding B3, the binding result in test [5] and in test [6] was “binds” in each case.
